± gives the standard deviation of the averaged measurements.
Assays:
MCF7 = experiment: percentage of EdU-negative (G0-arrested) nuclei per well, 72 h; higher = more G0 arrest; conditions: reference: sequence is the full UniProt precursor, the tested protein was the secreted form or ectodomain
hTERT-HMEC = experiment: as above; conditions: reference: sequence is the full UniProt precursor, the tested protein was the secreted form or ectodomain
[1] = protein concentration 0.03125 µM
[2] = protein concentration 0.3125 µM
[3] = protein concentration 0.02175 µM
[4] = protein concentration 0.2175 µM
[5] = protein concentration 0.0111429 µM
[6] = protein concentration 0.111429 µM
[7] = protein concentration 0.0225 µM
[8] = protein concentration 0.018565 µM
[9] = protein concentration 0.18565 µM
[10] = protein concentration 0.02225 µM
[11] = protein concentration 0.2225 µM
[12] = protein concentration 0.019635 µM
[13] = protein concentration 0.19635 µM
[14] = protein concentration 0.020665 µM
[15] = protein concentration 0.20665 µM
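Further: secreted proteins added to cultured cells, EdU pulse at the end, nuclei found by Hoechst imaging, EdU status from nuclear versus surrounding ring intensity ratio, PBS as neutral control.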

MELRARGWWLLCAAAALVACARGDPASKSRSCGEVRQIYGAKGFSLSDVPQAEISGEHLRICPQGYTCCTSEMEENLANRSHAELETALRDSSRVLQAMLATQLRSFDDHFQHLLNDSERTLQATFPGAFGELYTQNARAFRDLYSELRLYYRGANLHLEETLAEFWARLLERLFKQLHPQLLLPDDYLDCLGKQAEALRPFGEAPRELRLRATRAFVAARSFVQGLGVASDVVRKVAQVPLGPECSRAVMKLVYCAHCLGVPGARPCPDYCRNVLKGCLANQADLDAEWRNLLDSMVLITDKFWGTSGVESVIGSVHTWLAEAINALQDNRDTLTAKVIQGCGNPKVNPQGPGPEEKRRRGKLAPRERPPSGTLEKLVSEAKAQLRDVQDFWISLPGTLCSEKMALSTASDDRCWNGMARGRYLPEVMGDGLANQINNPEVEVDITKPDMTIRQQIMQLKIMTNRLRSAYNGNDVDFQDASDDGSGSGSGDGCLDDLCSRKVSRKSSSSRTPLTHALPGLSEQEGQKTSAASCPQPPTFLLPLLLFLALTVARPRWR
percentage of EdU-negative (MCF7; [1]): 27.5 ± 0.42% | percentage of EdU-negative (MCF7; [2]): 28.9 ± 2.8% | percentage of EdU-negative (hTERT-HMEC; [1]): 4.85 ± 0.34% | percentage of EdU-negative (hTERT-HMEC; [2]): 28.7 ± 1.6%

MALTGYSWLLLSATFLNVGAEISITLEPAQPSEGDNVTLVVHGLSGELLAYSWYAGPTLSVSYLVASYIVSTGDETPGPAHTGREAVRPDGSLDIQGILPRHSGTYILQTFNRQLQTEVGYGHVQVHEILAQPTVLANSTALVERRDTLRLMCSSPSPTAEVRWFFNGGALPVALRLGLSPDGRVLARHGIRREEAGAYQCEVWNPVSVSRSEPINLTVYFGPERVAILQDSTTRTGCTIKVDFNTSLTLWCVSRSCPEPEYVWTFNGQALKNGQDHLNISSMTAAQEGTYTCIAKNTKTLLSGSASVVVKLSAAAVATMIVPVPTKPTEGQDVTLTVQGYPKDLLVYAWYRGPASEPNRLLSQLPSGTWIAGPAHTGREVGFPNCSLLVQKLNLTDTGRYTLKTVTVQGKTETLEVELQVAPLG [Q2WEN9]
percentage of EdU-negative (MCF7; [3]): 26.4 ± 2% | percentage of EdU-negative (MCF7; [4]): 27.5 ± 2.3% | percentage of EdU-negative (hTERT-HMEC; [3]): 5.23 ± 0.14% | percentage of EdU-negative (hTERT-HMEC; [4]): 7.63 ± 2.6%

MWAPRCRRFWSRWEQVAALLLLLLLLGVPPRSLALPPIRYSHAGICPNDMNPNLWVDAQSTCRRECETDQECETYEKCCPNVCGTKSCVAARYMDVKGKKGPVGMPKEATCDHFMCLQQGSECDIWDGQPVCKCKDRCEKEPSFTCASDGLTYYNRCYMDAEACSKGITLAVVTCRYHFTWPNTSPPPPETTMHPTTASPETPELDMAAPALLNNPVHQSVTMGETVSFLCDVVGRPRPEITWEKQLEDRENVVMRPNHVRGNVVVTNIAQLVIYNAQLQDAGIYTCTARNVAGVLRADFPLSVVRGHQAAATSESSPNGTAFPAAECLKPPDSEDCGEEQTRWHFDAQANNCLTFTFGHCHRNLNHFETYEACMLACMSGPLAACSLPALQGPCKAYAPRWAYNSQTGQCQSFVYGGCEGNGNNFESREACEESCPFPRGNQRCRACKPRQKLVTSFCRSDFVILGRVSELTEEPDSGRALVTVDEVLKDEKMGLKFLGQEPLEVTLLHVDWACPCPNVTVSEMPLIIMGEVDGGMAMLRPDSFVGASSARRVRKLREVMHKKTCDVLKEFLGLH [Q8TEU8]
percentage of EdU-negative (MCF7; [5]): 25.8 ± 3% | percentage of EdU-negative (MCF7; [6]): 28.02 ± 0.15% | percentage of EdU-negative (hTERT-HMEC; [5]): 5.48 ± 1.1% | percentage of EdU-negative (hTERT-HMEC; [6]): 6.03 ± 0.2%

MCGPDDRCPARWPGPGRAVKCGKGLAAARPGRVERGGAQRGGAGLELHPLLGGRTWRAARDADGCEALGTVAVPFDDDDKIVGGYTCEENSLPYQVSLNSGSHFCGGSLISEQWVVSAAHCYKTRIQVRLGEHNIKVLEGNEQFINAAKIIRHPKYNRDTLDNDIMLIKLSSPAVINARVSTISLPTTPPAAGTECLISGWGNTLSFGADYPDELKCLDAPVLTQAECKASYPGKITNSMFCVGFLEGGKDSCQRDSGGPVVCNGQLQGVVSWGHGCAWKNRPGVYTKVYNYVDWIKDTIAANS
percentage of EdU-negative (MCF7; [7]): 25.3 ± 0.83% | percentage of EdU-negative (MCF7; protein concentration 0.225 µM): 26.6 ± 3.7% | percentage of EdU-negative (hTERT-HMEC; [7]): 5.21 ± 0.094% | percentage of EdU-negative (hTERT-HMEC; protein concentration 0.225 µM): 7.39 ± 0.7%

MGCRAASGLLPGVAVVLLLLLQSTQSVYIQYQGFRVQLESMKKLSDLEAQWAPSPRLQAQSLLPAVCHHPALPQDLQPVCASQEASSIFKTLRTIANDDCELCVNVACTGCL
percentage of EdU-negative (MCF7; [7]): 27.3 ± 2.2% | percentage of EdU-negative (MCF7; protein concentration 0.225 µM): 27.8 ± 1.8% | percentage of EdU-negative (hTERT-HMEC; [7]): 4.91 ± 1.5% | percentage of EdU-negative (hTERT-HMEC; protein concentration 0.225 µM): 9.77 ± 1.3%

MSLSAFTLFLALIGGTSGQYYDYDFPLSIYGQSSPNCAPECNCPESYPSAMYCDELKLKSVPMVPPGIKYLYLRNNQIDHIDEKAFENVTDLQWLILDHNLLENSKIKGRVFSKLKQLKKLHINHNNLTESVGPLPKSLEDLQLTHNKITKLGSFEGLVNLTFIHLQHNRLKEDAVSAAFKGLKSLEYLDLSFNQIARLPSGLPVSLLTLYLDNNKISNIPDEYFKRFNALQYLRLSHNELADSGIPGNSFNVSSLVELDLSYNKLKNIPTVNENLENYYLEVNQLEKFDIKSFCKILGPLSYSKIKHLRLDGNRISETSLPPDMYECLRVANEVTLN
percentage of EdU-negative (MCF7; [8]): 25.7 ± 0.65% | percentage of EdU-negative (MCF7; [9]): 25.1 ± 0.99% | percentage of EdU-negative (hTERT-HMEC; [8]): 5.59 ± 1.8% | percentage of EdU-negative (hTERT-HMEC; [9]): 6.27 ± 1.2%

MKLITILFLCSRLLLSLTQESQSEEIDCNDKDLFKAVDAALKKYNSQNQSNNQFVLYRITEATKTVGSDTFYSFKYEIKEGDCPVQSGKTWQDCEYKDAAKAATGECTATVGKRSSTKFSVATQTCQITPAEGPVVTAQYDCLGCVHPISTQSPDLEPILRHGIQYFNNNTQHSSLFMLNEVKRAQRQVVAGLNFRITYSIVQTNCSKENFLFLTPDCKSLWNGDTGECTDNAYIDIQLRIASFSQNCDIYPGKDFVQPPTKICVGCPRDIPTNSPELEETLTHTITKLNAENNATFYFKIDNVKKARVQVVAGKKYFIDFVARETTCSKESNEELTESCETKKLGQSLDCNAEVYVVPWEKKIYPTVNCQPLGMISLMKRPPGFSPFRSSRIGEIKEETTVSPPHTSMAPAQDEERDSGKEQGHTRRHDWGHEKQRKHNLGHGHKHERDQGHGHQRGHGLGHGHEQQHGLGHGHKFKLDDDLEHQGGHVLDHGHKHKHGHGHGKHKNKGKKNGKHNGWKTEHLASSSEDSTTPSAQTQEKTEGPTPIPSLAKPGVTVTFSDFQDSDLIATMMPPISPAPIQSDDDWIPDIQIDPNGLSFNPISDFPDTTSPKCPGRPWKSVSEINPTTQMKESYYFDLTDGLS
percentage of EdU-negative (MCF7; protein concentration 0.006 µM): 24.3 ± 0.58% | percentage of EdU-negative (MCF7; protein concentration 0.06 µM): 26.5 ± 0.67% | percentage of EdU-negative (hTERT-HMEC; protein concentration 0.006 µM): 4.85 ± 0.42% | percentage of EdU-negative (hTERT-HMEC; protein concentration 0.06 µM): 6.72 ± 0.15%

MYLSRFLSIHALWVTVSSVMQPYPLVWGHYDLCKTQIYTEEGKVWDYMACQPESTDMTKYLKVKLDPPDITCGDPPETFCAMGNPYMCNNECDASTPELAHPPELMFDFEGRHPSTFWQSATWKEYPKPLQVNITLSWSKTIELTDNIVITFESGRPDQMILEKSLDYGRTWQPYQYYATDCLDAFHMDPKSVKDLSQHTVLEIICTEEYSTGYTTNSKIIHFEIKDRFAFFAGPRLRNMASLYGQLDTTKKLRDFFTVTDLRIRLLRPAVGEIFVDELHLARYFYAISDIKVRGRCKCNLHATVCVYDNSKLTCECEHNTTGPDCGKCKKNYQGRPWSPGSYLPIPKGTANTCIPSISSIGNCECFGHSNRCSYIDLLNTVICVSCKHNTRGQHCELCRLGYFRNASAQLDDENVCIECYCNPLGSIHDRCNGSGFCECKTGTTGPKCDECLPGNSWHYGCQPNVCDNELLHCQNGGTCHNNVRCLCPAAYTGILCEKLRCEEAGSCGSDSGQGAPPHGSPALLLLTTLLGTASPLVF [Q9Y2I2]
percentage of EdU-negative (MCF7; [10]): 26.06 ± 0.23% | percentage of EdU-negative (MCF7; [11]): 28.6 ± 3.7% | percentage of EdU-negative (hTERT-HMEC; [10]): 5.38 ± 0.34% | percentage of EdU-negative (hTERT-HMEC; [11]): 5.84 ± 1.4%

MGILSFLPVLATESDWADCKSPQPWGHMLLWTAVLFLAPVAGTPAAPPKAVLKLEPQWINVLQEDSVTLTCRGTHSPESDSIQWFHNGNLIPTHTQPSYRFKANNNDSGEYTCQTGQTSLSDPVHLTVLSEWLVLQTPHLEFQEGETIVLRCHSWKDKPLVKVTFFQNGKSKKFSRSDPNFSIPQANHSHSGDYHCTGNIGYTLYSSKPVTITVQAPSSSPMGIIVAVVTGIAVAAIVAAVVALIYCRKKRISALPGYPECREMGETLPEKPANPTNPDEADKVGAENTITYSLLMHPDALEEPDDQNRI
percentage of EdU-negative (MCF7; [12]): 25 ± 1.1% | percentage of EdU-negative (MCF7; [13]): 25.9 ± 1.6% | percentage of EdU-negative (hTERT-HMEC; [12]): 4.58 ± 0.074% | percentage of EdU-negative (hTERT-HMEC; [13]): 5.06 ± 0.42%

MKVSEAALSLLVLILIITSASRSQPKVPEWVNTPSTCCLKYYEKVLPRRLVVGYRKALNCHLPAIIFVTKRNREVCTNPNDDWVQEYIKDPNLPLLPTRNLSTVKIITAKNGQPQLLNSQ
percentage of EdU-negative (MCF7; [14]): 22.9 ± 1.1% | percentage of EdU-negative (MCF7; [15]): 25.9 ± 2.8% | percentage of EdU-negative (hTERT-HMEC; [14]): 5.16 ± 1.1% | percentage of EdU-negative (hTERT-HMEC; [15]): 5.51 ± 0.14%

MDLSLLWVLLPLVTMAWGQYGDYGYPYQQYHDYSDDGWVNLNRQGFSYQCPQGQVIVAVRSIFSKKEGSDRQWNYACMPTPQSLGEPTECWWEEINRAGMEWYQTCSNNGLVAGFQSRYFESVLDREWQFYCCRYSKRCPYSCWLTTEYPGHYGEEMDMISYNYDYYIRGATTTFSAVERDRQWKFIMCRMTEYDCEFANV
percentage of EdU-negative (MCF7; [7]): 25.1 ± 0.98% | percentage of EdU-negative (MCF7; protein concentration 0.225 µM): 26.2 ± 0.3% | percentage of EdU-negative (hTERT-HMEC; [7]): 5.38 ± 0.62% | percentage of EdU-negative (hTERT-HMEC; protein concentration 0.225 µM): 4.92 ± 0.97%

MKSFLLVVNALALTLPFLAVEVQNQKQPACHENDERPFYQKTAPYVPMYYVPNSYPYYGTNLYQRRPAIAINNPYVPRTYYANPAVVRPHAQIPQRQYLPNSHPPTVVRRPNLHPSFIAIPPKKIQDKIIIPTINTIATVEPTPAPATEPTVDSVVTPEAFSESIITSTPETTTVAVTPPTA
percentage of EdU-negative (MCF7; protein concentration 0.01 µM): 24.6 ± 1.5% | percentage of EdU-negative (MCF7; protein concentration 0.1 µM): 25.6 ± 1.9% | percentage of EdU-negative (hTERT-HMEC; protein concentration 0.01 µM): 5.78 ± 0.51% | percentage of EdU-negative (hTERT-HMEC; protein concentration 0.1 µM): 5.65 ± 0.83%
